Experimental data reported in patent publication US20230383006A1 (ADIENNE S A, published 2023).

Columns and labels:
[1] = target: T1, Porcine Antigen (purchased from Sigma CAT #D 7052) (porcine, UniProt P22411 38-766, limits assumed); test: Biacore, CDina26 captured by an immobilized polyclonal anti-mouse Ig antibody, Porcine Ag injected in solution
T1 construct: Bought soluble protein; also called porcine CD26; Porcine Antigen (Ag)

[2] = target: T2, Matrix 3 discontinuous CLIPS peptides covering residues 226 to 252 of human CD26 (human, peptides fixed on a CLIPS scaffold through thiol side chains of cysteines); test: CLIPS epitope mapping, discontinuous peptides, Matrix 3
T2 construct: A set of peptide constructs from this range; also called protruding loop of CD26
From the text: The epitopes recognized by the CDina26 antibody produced by hybridoma cell line deposited as PD 12002 have been identified by CLIPS™ Epitope Mapping technology. See, e.g., U.S. Pat. Nos. 7,863,239 and 7,972,993, the disclosures of which are herein incorporated by reference in their entirety. Briefly, CLIPS™ technology structurally fixes peptides into defined three-dimensional structures. […] The CLIPS™ reaction takes place between bromo groups of the CLIPS™ scaffold and thiol side chains of cysteines. The reaction is fast and specific under mild conditions (Timmerman et al., J. Mol. Recognit. 2007; 20: 283-29).
CLIPS™ library screening starts with the conversion of the human CD26 target protein into a library of overlapping peptide constructs, using a combinatorial matrix design. On a solid carrier, a matrix of linear peptides is synthesized, which are subsequently shaped into spatially defined CLIPS™ constructs. Constructs representing several parts of a discontinuous epitope in the correct conformation bind the antibody with high affinity, which is detected and quantified. […] Affinity information is used in iterative screens to define the sequence and conformation of epitopes in detail.

[3] = target: T3, porcine CD26 expressed on minipig T lymphocytes (porcine (minipig), UniProt P22411 1-766); test: multiparametric flow cytometry on lymphocytes from minipig peripheral blood, CD3 (FL1-H) against CD26/CDina26 (FL2-H)
T3 construct: whole, on cells; Native CD26 on lymphocytes isolated from minipig peripheral blood; also called minipig CD26; Porcine Antigen as a transmembrane protein expressed on T lymphocytes

[4] = target: Purified recombinant human CD26 (rhDipeptidyl peptidase IV; Creative BioMart; CAT #DPP4-116H) (human, UniProt P27487 29-766); test: SPR (Biacore), 25 C, CDina26 captured on anti-IgG2b CM5 chip, human CD26 as analyte at 30-810 nM
Method: Surface Plasmon Resonance system (Biacore®) was used to determine the affinity of CDina26 for human CD26 according to standard protocols. Affinity measurements were taken at 25° C., immobilizing on carboxymethyl dextran chip (CM5) 10.000 RU of an anti-IgG2b antibody (GE Healthcare, 22-0648-97 AC). CDina26 was prepared as stock in HBS-EP (0.01M HEPES, pH 7.4, 0.15M NaCl, 3 mM EDTA, 0.005% Surfactant P20) running buffer in a final concentration of 50 μg/ml, and for each experiment 2.000 RU were reversibly immobilized on the chip by injection with a flow of 10 μl/min in a period of 180 seconds.
Purified recombinant human CD26 (rhDipeptidyl peptidase IV; Creative BioMart; CAT #DPP4-116H) was prepared in a stock concentration of 5.8×10^-6 M. CD26 was injected at increasing concentrations of 30×10⁻⁹, 90×10⁻⁹ M, 270×10⁻⁹ M and 810×10⁻⁹ M. The CD26 samples were injected with a flow of 10μl/minute; with HBS-EP buffer used as running buffer. A typical recording included a 3 minutes period of injection of the CD26 followed by a period of 8 minutes of dissociation. The raw binding data was analyzed according to standard methods. CM5 chip with immobilized anti-IgG2b antibody was regenerated by injection of 10 mM Glycine-HCl pH 1.7 with a flow of injection of 20 μl/min and for a period of 60 seconds.

[5] = target: T4, Human Antigen (purchased from Sigma CAT #D4943) (human, UniProt P27487 29-766, limits assumed); test: Biacore T100, CDina26 captured by immobilized polyclonal anti-mouse Ig antibody, human antigen injected at two concentrations
T4 construct: Bought soluble protein injected in solution in Biacore; also called human CD26; Human Antigen (Ag)
T4 sequence (P27487 29-766 limits assumed): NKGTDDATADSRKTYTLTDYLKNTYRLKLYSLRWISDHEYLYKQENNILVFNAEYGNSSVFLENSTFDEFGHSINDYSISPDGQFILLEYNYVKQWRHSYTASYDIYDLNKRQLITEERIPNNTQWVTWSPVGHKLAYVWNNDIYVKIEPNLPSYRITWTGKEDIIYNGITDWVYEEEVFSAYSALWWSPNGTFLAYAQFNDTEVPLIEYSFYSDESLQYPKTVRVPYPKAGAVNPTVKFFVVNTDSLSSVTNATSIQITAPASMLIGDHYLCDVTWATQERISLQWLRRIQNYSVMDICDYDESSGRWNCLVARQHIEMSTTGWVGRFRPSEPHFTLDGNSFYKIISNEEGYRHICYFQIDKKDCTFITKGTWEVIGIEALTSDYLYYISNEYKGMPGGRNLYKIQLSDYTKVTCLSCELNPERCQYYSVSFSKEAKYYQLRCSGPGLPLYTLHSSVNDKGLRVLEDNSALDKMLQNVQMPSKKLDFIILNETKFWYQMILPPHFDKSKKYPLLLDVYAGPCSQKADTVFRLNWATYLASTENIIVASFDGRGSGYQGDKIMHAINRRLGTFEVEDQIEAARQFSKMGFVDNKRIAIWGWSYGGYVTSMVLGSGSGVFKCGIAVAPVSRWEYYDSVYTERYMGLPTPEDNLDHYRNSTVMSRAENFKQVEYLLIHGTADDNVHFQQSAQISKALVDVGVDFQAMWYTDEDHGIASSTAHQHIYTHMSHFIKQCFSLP

Chain of Purified recombinant human CD26 (rhDipeptidyl peptidase IV; Creative BioMart; CAT #DPP4-116H) (P27487 29-766 limits assumed): as above
T3 sequence (P22411 whole entry): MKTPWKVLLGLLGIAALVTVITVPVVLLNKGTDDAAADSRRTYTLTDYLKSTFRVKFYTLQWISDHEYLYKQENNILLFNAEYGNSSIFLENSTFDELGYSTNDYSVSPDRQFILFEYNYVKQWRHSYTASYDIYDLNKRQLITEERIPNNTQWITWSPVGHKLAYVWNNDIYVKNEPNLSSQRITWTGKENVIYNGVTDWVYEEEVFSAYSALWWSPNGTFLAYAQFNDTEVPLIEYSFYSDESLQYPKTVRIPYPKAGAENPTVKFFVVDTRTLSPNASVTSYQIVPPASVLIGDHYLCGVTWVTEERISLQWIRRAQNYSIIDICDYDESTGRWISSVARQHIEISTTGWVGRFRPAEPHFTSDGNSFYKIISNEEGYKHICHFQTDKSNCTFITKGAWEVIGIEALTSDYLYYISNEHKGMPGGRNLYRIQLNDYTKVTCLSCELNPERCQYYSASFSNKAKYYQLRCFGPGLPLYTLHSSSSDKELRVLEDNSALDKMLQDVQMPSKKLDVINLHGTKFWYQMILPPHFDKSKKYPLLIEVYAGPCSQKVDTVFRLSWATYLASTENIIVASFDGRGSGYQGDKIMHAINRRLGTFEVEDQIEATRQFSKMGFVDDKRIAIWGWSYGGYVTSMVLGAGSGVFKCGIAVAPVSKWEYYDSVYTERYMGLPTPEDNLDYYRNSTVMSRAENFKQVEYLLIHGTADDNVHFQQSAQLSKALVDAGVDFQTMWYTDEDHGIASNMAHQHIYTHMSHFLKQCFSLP
T2 sequence (peptide, as listed by the source): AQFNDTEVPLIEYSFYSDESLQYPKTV
T1 sequence (P22411 38-766 limits assumed): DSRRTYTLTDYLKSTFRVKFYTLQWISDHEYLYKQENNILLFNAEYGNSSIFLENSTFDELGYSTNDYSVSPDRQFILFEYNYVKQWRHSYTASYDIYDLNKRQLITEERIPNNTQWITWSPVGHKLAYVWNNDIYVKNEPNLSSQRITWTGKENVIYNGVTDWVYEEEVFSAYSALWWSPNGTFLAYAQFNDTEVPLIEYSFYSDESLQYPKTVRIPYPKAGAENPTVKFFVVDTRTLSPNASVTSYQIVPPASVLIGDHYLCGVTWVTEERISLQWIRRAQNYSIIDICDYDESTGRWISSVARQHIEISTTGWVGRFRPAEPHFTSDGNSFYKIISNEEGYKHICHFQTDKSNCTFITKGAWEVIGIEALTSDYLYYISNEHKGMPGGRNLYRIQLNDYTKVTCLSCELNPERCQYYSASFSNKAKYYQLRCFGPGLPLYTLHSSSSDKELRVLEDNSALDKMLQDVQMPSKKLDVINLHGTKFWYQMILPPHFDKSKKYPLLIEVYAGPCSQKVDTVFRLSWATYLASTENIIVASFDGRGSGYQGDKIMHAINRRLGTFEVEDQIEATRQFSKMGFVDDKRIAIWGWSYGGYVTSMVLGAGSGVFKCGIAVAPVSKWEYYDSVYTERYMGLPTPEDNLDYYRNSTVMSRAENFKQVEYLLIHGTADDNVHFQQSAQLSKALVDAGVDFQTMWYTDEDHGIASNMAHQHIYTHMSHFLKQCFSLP

binding result [1]: no binding | binding result [2]: no binding | binding result [3]: no binding | Kd [4]: 5.02 nM | koff [4]: 0.000132 s⁻¹ | kon [4]: 26300 M⁻¹ s⁻¹ | koff [5]: 2.8e-05 s⁻¹
B1: CDina26 (antibody, mouse IgG2b, kappa, V domains shown)
VH: QVQLQQSGAELVKPGASVKLSCKASGYTFRSYDINWVRQRPEQGLEWIGWIFPGDGSTKYNEKFKGKATLTTDKSSSTAYMQLSRLTSEDSAVYFCARWTVVGPGYFDVWGAGTTVTVSS
VL: QIVLTQSPAIMSASPGEKVTITCSASSSVSYMNWFQQKPGTSPKLWIYSTSNLASGVPARFSGSGSGTSYSLTISRMEAEDAATYYCQQRSSYPNTFGGGTKLEIKR
notes: also called antibodies produced by the PD 12002 hybridoma cell line deposit; murine monoclonal antibody against CD26
